Laboratory results published in patent US20050282743A1, “Molecular interactions in cells” (Arbor Vita Corporation, priority 2001, published 2005).

Key:
Test in all cases: G' assay
[1] = molecular target: T1, GST-PDZ-73 PDZ domain 2 (Homo sapiens (Human)), Q9Y6N9
T1 chain: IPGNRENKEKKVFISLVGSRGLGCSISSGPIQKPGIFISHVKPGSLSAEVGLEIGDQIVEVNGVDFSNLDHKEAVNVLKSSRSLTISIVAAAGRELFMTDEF

[2] = molecular target: T2, GST-novel PDZ gene PDZ domain 2 (Homo sapiens (Human)), Q9H5P4
T2 chain: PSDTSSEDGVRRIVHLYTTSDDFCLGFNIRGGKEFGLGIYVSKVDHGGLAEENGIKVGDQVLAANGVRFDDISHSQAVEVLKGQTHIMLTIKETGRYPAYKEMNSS

[3] = molecular target: T3, GST-FLJ21687 PDZ domain 1 (Homo sapiens (Human)), Q9H6Y5
T3 chain: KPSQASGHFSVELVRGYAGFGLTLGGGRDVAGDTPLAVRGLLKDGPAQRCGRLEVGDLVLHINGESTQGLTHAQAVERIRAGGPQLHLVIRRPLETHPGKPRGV

[4] = molecular target: T4, GST-MUPP1 PDZ domain 7 (Homo sapiens (Human)), O75970
T4 chain: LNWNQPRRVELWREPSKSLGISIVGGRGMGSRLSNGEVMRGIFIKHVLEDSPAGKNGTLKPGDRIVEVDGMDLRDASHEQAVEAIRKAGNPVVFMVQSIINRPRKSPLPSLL

[5] = molecular target: T5, GST-MUPP1 PDZ domain 9 (Homo sapiens (Human)), O75970
T5 chain: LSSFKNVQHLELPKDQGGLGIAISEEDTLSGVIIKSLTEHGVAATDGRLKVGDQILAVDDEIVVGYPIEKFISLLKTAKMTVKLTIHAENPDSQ

[6] = molecular target: GST-Atrophin-1 Interacting Protein PDZ domain 2 (Homo sapiens (Human)), Q86UL8
Chain of GST-Atrophin-1 Interacting Protein PDZ domain 2 (Homo sapiens (Human)), Q86UL8 (Q86UL8 other isoform, or with tags, fused parts or gaps): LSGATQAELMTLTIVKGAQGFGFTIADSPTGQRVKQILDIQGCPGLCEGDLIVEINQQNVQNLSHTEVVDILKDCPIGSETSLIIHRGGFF

[7] = molecular target: T6, GST-PSD95 PDZ domain 2 (Homo sapiens)
T6 chain: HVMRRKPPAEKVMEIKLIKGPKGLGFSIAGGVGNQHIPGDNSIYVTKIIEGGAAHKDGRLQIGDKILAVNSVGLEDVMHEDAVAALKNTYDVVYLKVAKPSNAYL

[8] = molecular target: T7, GST-rat SHANK 3 PDZ domain 1 (rat), Q9JLU4
T7 chain: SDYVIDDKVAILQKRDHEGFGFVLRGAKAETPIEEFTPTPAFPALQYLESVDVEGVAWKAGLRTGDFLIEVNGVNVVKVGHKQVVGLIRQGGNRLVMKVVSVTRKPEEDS

[9] = molecular target: T8, GST-LIM Protein PDZ domain 1 (Homo sapiens (Human)), Q96HC4
T8 chain: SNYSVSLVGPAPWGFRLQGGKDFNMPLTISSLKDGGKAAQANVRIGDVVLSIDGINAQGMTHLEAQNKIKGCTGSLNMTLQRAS

[10] = molecular target: T9, GST-AF6 PDZ domain 1 (Homo sapiens (Human)), P55196
T9 chain: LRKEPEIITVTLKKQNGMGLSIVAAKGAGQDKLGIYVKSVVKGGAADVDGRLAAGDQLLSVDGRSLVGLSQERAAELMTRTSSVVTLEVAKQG

[11] = molecular target: T10, GST-KIAA0303 PDZ domain 1 (Homo sapiens (Human)), O15021
T10 chain: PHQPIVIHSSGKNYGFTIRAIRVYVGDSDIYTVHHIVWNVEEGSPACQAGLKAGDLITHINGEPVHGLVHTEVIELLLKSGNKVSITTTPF

[12] = molecular target: T11, GST-TIAM 2 PDZ domain 1 (Homo sapiens (Human)), Q8IVF5
T11 chain: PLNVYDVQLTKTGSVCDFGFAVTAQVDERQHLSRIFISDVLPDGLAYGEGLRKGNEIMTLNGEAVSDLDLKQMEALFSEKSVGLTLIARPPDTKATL

[13] = molecular target: T12, GST-KIAA1415 PDZ domain 1 (Homo sapiens (Human)), Q8TCU6
T12 chain: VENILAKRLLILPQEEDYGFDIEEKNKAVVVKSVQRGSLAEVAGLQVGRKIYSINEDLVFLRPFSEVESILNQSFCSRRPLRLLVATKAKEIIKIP

[14] = molecular target: T13, GST-KIAA1719 PDZ domain 5 (Homo sapiens (Human)), Q9C0E4
T13 chain: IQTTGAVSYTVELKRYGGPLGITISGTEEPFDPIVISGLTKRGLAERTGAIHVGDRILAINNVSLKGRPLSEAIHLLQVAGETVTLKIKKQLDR

[15] = molecular target: T14, GST-AIPC PDZ domain 4 (Homo sapiens (Human)), O15018
T14 chain: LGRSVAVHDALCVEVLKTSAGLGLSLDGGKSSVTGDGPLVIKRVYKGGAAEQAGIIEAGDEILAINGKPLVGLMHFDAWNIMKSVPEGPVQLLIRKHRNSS

[16] = molecular target: T15, GST-AIPC PDZ domain 3 (Homo sapiens (Human)), O15018
T15 chain: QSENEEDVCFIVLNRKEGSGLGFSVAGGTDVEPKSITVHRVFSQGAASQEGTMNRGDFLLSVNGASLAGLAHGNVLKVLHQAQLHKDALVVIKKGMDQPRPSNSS

[17] = molecular target: T16, GST-SYNTENIN PDZ domain 2 (Homo sapiens (Human)), O00560
T16 chain: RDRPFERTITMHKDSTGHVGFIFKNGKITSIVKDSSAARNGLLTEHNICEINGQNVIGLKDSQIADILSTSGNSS

[18] = molecular target: T17, GST-MUPP1 PDZ domain 4 (Homo sapiens (Human)), O75970
T17 chain: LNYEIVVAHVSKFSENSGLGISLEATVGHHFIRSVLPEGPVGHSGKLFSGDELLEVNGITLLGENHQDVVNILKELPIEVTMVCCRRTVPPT

[19] = molecular target: T18, GST-DLG1 PDZ domain 3 (Homo sapiens), Q12959
T18 chain: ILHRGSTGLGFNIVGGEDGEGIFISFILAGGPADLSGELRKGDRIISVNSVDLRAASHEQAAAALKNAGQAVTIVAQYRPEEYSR
Note: key of the grades not given here.

Binder: PIPAGGCTFSGIFPTLTSPL (modifications not checked) [KIA 1481]
- Classification [1]: 1 A450 class
- Classification [2]: 1 A450 class

Binder: HDFRRAFKKILARGDRKRIV (modifications not checked) [alpha-2A Adrenergic receptor]
- Classification [3]: 1 A450 class

Binder: KTMPAAMYRLLTAQEQPVYI (modifications not checked) [MINT-1]
- Classification [4]: 3 A450 class
- Classification [5]: 3 A450 class

Binder: QISPGGLEPPSEKHFRETEV (modifications not checked) [TAX]
- Classification [6]: 1 A450 class
- Classification [7]: 1 A450 class

Binder: VPGALDYAAFSSALYGESDL (modifications not checked) [a-actinin 2]
- Classification [8]: 1 A450 class
- Classification [9]: 4 A450 class

Binder: ELLQFCRTPNPALKNGQYWV (modifications not checked) [CSPG4 (chondroitin sulfae proteoglycan 4, melanoma-associated)]
- Classification [10]: 5 A450 class
- Classification [11]: 1 A450 class
- Classification [12]: 3 A450 class

Binder: ILNSIQVMRAQMNQIQSVEV (modifications not checked) [ephrin B2]
- Classification [13]: 1 A450 class
- Classification [14]: 4 A450 class
- Classification [15]: 1 A450 class
- Classification [16]: 1 A450 class
- Classification [17]: 2 A450 class
- Classification [18]: 1 A450 class
- Classification [19]: 1 A450 class
